Our source for the Kd values is PMC8260656.

As usually defined, the Kd is the concentration at which binding is half-saturated.

The target of this test is EZH2 recombinant protein His-tagged (Epigentek, E24031-1) (human) (UniProt Q15910). The test can be described thus: MST; labeled His-tagged EZH2 at 5 nM fixed; ERG from 0.4uM to 2.44E-05uM; incubated at room temperature for 5 min; Monolith NT.115, Premium capillaries, 30% LED excitation, high MST power.

B1: ERG recombinant protein (Origene, TP308093) (natural protein)
chain: MASTIKEALSVVSEDQSLFECAYGTPHLAKTEMTASSSSDYGQTSKMSPRVPQQDWLSQPPARVTIKMECNPSQVNGSRNSPDECSVAKGGKMVGSPDTVGMNYGSYMEEKHMPPPNMTTNERRVIVPADPTLWSTDHVRQWLEWAVKEYGLPDVNILLFQNIDGKELCKMTKDDFQRLTPSYNADILLSHLHYLRETPLPHLTSDDVDKALQNSPRLMHARNTGGAAFIFPNTSVYPEATQRITTRPDLPYEPPRRSAWTGHGHPTPQSKAAQPSPSTVPKTEDQRPQLDPYQILGPTSSRLANPGSGQIQLWQFLLELLSDSSNSSCITWEGTNGEFKMTDPDEVARRWGERKSKPNMNYDKLSRALRYYYDKNIMTKVHGKRYAYKFDFHGIAQALQPHPPESSLYKYPSDLPYMGSYHAHPQKMNFVAPHPPALPVTSSSFFAAPNPYWNSPTGGIYPNTRLPTSHMPSHLGTYY
B1: the dissociation constant Kd was found to be 290 nM.
